We go through one molecule from article PMC7125119, “An oncopeptide regulates m6A recognition by the m6A reader IGF2BP1 and tumorigenesis”.

The data set has as its target IGF2BP1-Flag (recombinant);RBRP-Flag WT (Homo sapiens?;Homo sapiens, UniProt Q9NZI8;C0HM01 1-577;1-71, |). As to the kind of experiment: EMSA; RBRP WT increases IGF2BP1 binding; Pull-down: 1 nmol biotin-RNA on streptavidin-agarose, nuclear extract, 30 C 30 min, immunoblot. EMSA: LightShift kit, 20 pmol RNA, 6 ug IGF2BP1-Flag, 2 ug RBRP, room temperature 30 min, then 0.2% glutaraldehyde (1 ul) on ice 15 min, 6% TBE gel; salt and binding pH not stated. The conditions noted are these: protein: recombinant;recombinant; label: biotin 5'; single strand. Background: In EMSA bound probe runs differently from free probe, usually more slowly.

Sequence of IGF2BP1-Flag (recombinant);RBRP-Flag WT (Q9NZI8 whole entry, chain 1 of 2): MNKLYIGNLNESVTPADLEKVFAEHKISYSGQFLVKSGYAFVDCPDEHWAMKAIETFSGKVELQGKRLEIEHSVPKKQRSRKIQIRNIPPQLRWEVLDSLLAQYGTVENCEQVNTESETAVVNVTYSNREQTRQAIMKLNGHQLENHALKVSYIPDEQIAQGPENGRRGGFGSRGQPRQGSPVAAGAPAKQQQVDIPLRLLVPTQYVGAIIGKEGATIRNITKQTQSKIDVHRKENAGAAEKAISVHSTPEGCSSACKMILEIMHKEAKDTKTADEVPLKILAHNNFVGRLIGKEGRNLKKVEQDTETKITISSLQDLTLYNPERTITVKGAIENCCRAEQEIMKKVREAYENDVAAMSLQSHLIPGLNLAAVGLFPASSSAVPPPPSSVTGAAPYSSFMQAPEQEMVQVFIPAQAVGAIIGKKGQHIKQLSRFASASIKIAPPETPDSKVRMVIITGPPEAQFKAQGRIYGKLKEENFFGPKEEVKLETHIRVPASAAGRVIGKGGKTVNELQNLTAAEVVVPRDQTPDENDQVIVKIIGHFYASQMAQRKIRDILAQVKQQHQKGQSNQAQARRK
Sequence of IGF2BP1-Flag (recombinant);RBRP-Flag WT (C0HM01 whole entry, chain 2 of 2): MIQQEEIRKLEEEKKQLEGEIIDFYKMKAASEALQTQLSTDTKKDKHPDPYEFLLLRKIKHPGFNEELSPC

Regarding CGUCUCGGACUCGGACUGCU (ssRNA, m6A at 9 and 15) [ss-m6A], the binding result is recorded as “binds”.
